These results are taken from the supplement of paper PMC5998384.

The subject of series [1] is HeLa Kyoto. The experiment in a line: thermal stability score vs G1/S (z-score of summed log2 fold changes over temperatures); higher = more thermally stable than in G1/S.
Series [2] deals with HeLa Kyoto. As to the kind of experiment: solubility in G1/S (NP-40 vs SDS abundance) (log2 ratio); higher = more soluble. Particulars: cell cycle stage: G1/S.
The test system of series [3] is HeLa Kyoto. The experiment in a line: melting temperature (median over replicates), in situ; higher = more thermally stable.
Series [4] has as its system HeLa Kyoto. The experiment in a line: solubility change mitosis vs G1/S (difference of NP-40 vs SDS log2 ratios) (log2 ratio difference); higher = more soluble in mitosis.
Where [5] appears, read: cell cycle stage: early G1 (4.5 h after nocodazole release).
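For melting temperature (median over replicates), in situ in this document: HeLa Kyoto cells synchronized by double thymidine or nocodazole block, proteins quantified by TMT10plex mass spectrometry, three independent biological replicates.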
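For solubility change mitosis vs G1/S (difference of NP-40 vs SDS log2 ratios) in this document: synchronized HeLa Kyoto cells (double thymidine block for G1/S, nocodazole release for mitosis), protein amounts in NP-40 versus SDS lysates quantified by mass spectrometry, three biological replicates.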
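For solubility in G1/S (NP-40 vs SDS abundance) in this document: HeLa Kyoto cells arrested at G1/S by double thymidine block, proteins quantified by TMT10plex mass spectrometry in mild NP-40 versus SDS extracts, three biological replicates.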
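For thermal stability score vs G1/S (z-score of summed log2 fold changes over temperatures) in this document: synchronized HeLa Kyoto cells, proteins quantified by TMT10plex mass spectrometry, three biological replicates, mitosis taken 0.5 h after nocodazole release, G1/S directly after double thymidine block.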

“MRAVRRGLREGGAMAAARDPPEVSLREATQRKLRRFSELRGKLVARGEFWDIVAITAADEKQELAYNQQLSEKLKRKELPLGVQYHVFVDPAGAKIGNGGSTLCALQCLEKLYGDKWNSFTILLIHSGGYSQRLPNASALGKIFTALPLGNPIYQMLELKLAMYIDFPLNMNPGILVTCADDIELYSIGEFEFIRFDKPGFTALAHPSSLTIGTTHGVFVLDPFDDLKHRDLEYRSCHRFLHKPSIEKMYQFNAVCRPGNFCQQDFAGGDIADLKLDSDYVYTDSLFYMDHKSAKMLLAFYEKIGTLSCEIDAYGDFLQALGPGATVEYTRNTSNVIKEESELVEMRQRIFHLLKGTSLNVVVLNNSKFYHIGTTEEYLFYFTSDNSLKSELGLQSITFSIFPDIPECSGKTSCIIQSILDSRCSVAPGSVVEYSRLGPDVSVGENCIISGSYILTKAALPAHSFVCSLSLKMNRCLKYATMAFGVQDNLKKSVKTLSDIKLLQFFGVCFLSCLDVWNLKVTEELFSGNKTCLSLWTARIFPVCSSLSDSVITSLKMLNAVKNKSAFSLNSYKLLSIEEMLIYKDVEDMITYREQIFLEISLKSSLM [FPGT]”: the thermal stability score stood at 1.19 in the series with HeLa Kyoto [1] (setting [5]) and 2.29 in the series on HeLa Kyoto [1] (cell cycle stage: mitosis). Also, in the series with HeLa Kyoto [2], the “solubility in G1/S (log2)” value came to 0.115. For the same sequence, the results for the melting temperature in the series on HeLa Kyoto [3] (cell cycle stage: G1/S) and in the series on HeLa Kyoto [3] (cell cycle stage: mitosis) were 54.4 °C and 55.1 °C, respectively. The “solubility change mitosis (log2)” value with HeLa Kyoto [4] is -0.353.
Take “MRECISVHVGQAGVQMGNACWELYCLEHGIQPDGQMPSDKTIGGGDDSFTTFFCETGAGKHVPRAVFVDLEPTVIDEIRNGPYRQLFHPEQLITGKEDAANNYARGHYTIGKEIIDPVLDRIRKLSDQCTGLQGFLVFHSFGGGTGSGFTSLLMERLSVDYGKKSKLEFSIYPAPQVSTAVVEPYNSILTTHTTLEHSDCAFMVDNEAIYDICRRNLDIERPTYTNLNRLISQIVSSITASLRFDGALNVDLTEFQTNLVPYPRIHFPLATYAPVISAEKAYHEQLSVAEITNACFEPANQMVKCDPRHGKYMACCLLYRGDVVPKDVNAAIAAIKTKRSIQFVDWCPTGFKVGINYQPPTVVPGGDLAKVQRAVCMLSNTTAIAEAWARLDHKFDLMYAKRAFVHWYVGEGMEEGEFSEAREDMAALEKDYEEVGIDSYEDEDEGEE [TUBA4A]”: the figures for the thermal stability score in the series on HeLa Kyoto [1] (setting [5]) and with HeLa Kyoto [1] (cell cycle stage: mitosis) were -0.775 and -2.94, respectively. For the same sequence, the “solubility in G1/S (log2)” value with HeLa Kyoto [2] was determined as 0.111. Besides, the melting temperature in the series on HeLa Kyoto [3] (cell cycle stage: G1/S) amounted to 55.6 °C; with HeLa Kyoto [3] (cell cycle stage: mitosis), 54.2 °C. In the series on HeLa Kyoto [4], the “solubility change mitosis (log2)” value was -0.138.
As to “MREIVHIQAGQCGNQIGTKFWEVISDEHGIDPAGGYVGDSALQLERINVYYNESSSQKYVPRAALVDLEPGTMDSVRSGPFGQLFRPDNFIFGQTGAGNNWAKGHYTEGAELVDAVLDVVRKECEHCDCLQGFQLTHSLGGGTGSGMGTLLISKIREEFPDRIMNTFSVMPSPKVSDTVVEPYNATLSVHQLVENTDETYCIDNEALYDICFRTLKLTTPTYGDLNHLVSATMSGVTTSLRFPGQLNADLRKLAVNMVPFPRLHFFMPGFAPLTSRGSQQYRALTVPELTQQMFDARNMMAACDPRHGRYLTVATVFRGPMSMKEVDEQMLAIQSKNSSYFVEWIPNNVKVAVCDIPPRGLKMASTFIGNSTAIQELFKRISEQFSAMFRRKAFLHWFTGEGMDEMEFTEAESNMNDLVSEYQQYQDATANDGEEAFEDEEEEIDG [TUBB6]”, the thermal stability score in the series on HeLa Kyoto [1] (setting [5]) was -0.862; with HeLa Kyoto [1] (cell cycle stage: mitosis), -2.31. The “solubility in G1/S (log2)” value in the series with HeLa Kyoto [2] turned out to be 0.0985. Besides, the results for the melting temperature in the series on HeLa Kyoto [3] (cell cycle stage: G1/S) and in the series with HeLa Kyoto [3] (cell cycle stage: mitosis) were 54.8 °C and 53.8 °C, respectively. In the series with HeLa Kyoto [4], the “solubility change mitosis (log2)” value is -0.124.
For the sequence “MREYKVVVLGSGGVGKSALTVQFVTGTFIEKYDPTIEDFYRKEIEVDSSPSVLEILDTAGTEQFASMRDLYIKNGQGFILVYSLVNQQSFQDIKPMRDQIVRVKRYEKVPLILVGNKVDLEPEREVMSSEGRALAQEWGCPFMETSAKSKSMVDELFAEIVRQMNYSSLPEKQDQCCTTCVVQ [RAP2C]”, the results for the thermal stability score in the series with HeLa Kyoto [1] (setting [5]) and in the series with HeLa Kyoto [1] (cell cycle stage: mitosis) were 1.5 and -1.73, respectively. Besides, in the series with HeLa Kyoto [2], the “solubility in G1/S (log2)” value stood at 0.0732. For the same sequence, the melting temperature turned out to be 56.9 °C in the series on HeLa Kyoto [3] (cell cycle stage: G1/S) and 55.4 °C in the series on HeLa Kyoto [3] (cell cycle stage: mitosis). Further, in the series on HeLa Kyoto [4], the “solubility change mitosis (log2)” value was -0.0697.
Turning to “MRGEQGAAGARVLQFTNCRILRGGKLLREDLWVRGGRILDPEKLFFEERRVADERRDCGGRILAPGFIDVQINGGFGVDFSQATEDVGSGVALVARRILSHGVTSFCPTLVTSPPEVYHKVVPQIPVKSGGPHGAGVLGLHLEGPFISREKRGAHPEAHLRSFEADAFQDLLATYGPLDNVRIVTLAPELGRSHEVIRALTARGICVSLGHSVADLRAAEDAVWSGATFITHLFNAMLPFHHRDPGIVGLLTSDRLPAGRCIFYGMIADGTHTNPAALRIAHRAHPQGLVLVTDAIPALGLGNGRHTLGQQEVEVDGLTAYVAGTKTLSGSIAPMDVCVRHFLQATGCSMESALEAASLHPAQLLGLEKSKGTLDFGADADFVVLDDSLHVQATYISGELVWQADAARQ [AMDHD2]”, the thermal stability score with HeLa Kyoto [1] (setting [5]) was -1.01; in the series with HeLa Kyoto [1] (cell cycle stage: mitosis) it was -2.12. Further, in the series on HeLa Kyoto [2], the “solubility in G1/S (log2)” value is -0.0483. Besides, the melting temperature in the series with HeLa Kyoto [3] (cell cycle stage: G1/S) stood at 55.1 °C; in the series on HeLa Kyoto [3] (cell cycle stage: mitosis), 54.3 °C. Besides, in the series on HeLa Kyoto [4], the “solubility change mitosis (log2)” value was -0.0923.
